From patent US20240132624A1 (Ablynx, published 2024)
Changes are numbered by the printed parent chain.

Target: T1, human FcRn/b2M (human, UniProt P61769 21-119, biotinylated)
T1 construct: bought recombinant biotinylated protein (ACRO FCM-H82W4 or Immunitrack ITF01); also called hFcRn; hFcRn/hb2M
Assay: SPR pH 6.0

T1 sequence (chain, as listed by the source limits assumed, chain 1 of 2): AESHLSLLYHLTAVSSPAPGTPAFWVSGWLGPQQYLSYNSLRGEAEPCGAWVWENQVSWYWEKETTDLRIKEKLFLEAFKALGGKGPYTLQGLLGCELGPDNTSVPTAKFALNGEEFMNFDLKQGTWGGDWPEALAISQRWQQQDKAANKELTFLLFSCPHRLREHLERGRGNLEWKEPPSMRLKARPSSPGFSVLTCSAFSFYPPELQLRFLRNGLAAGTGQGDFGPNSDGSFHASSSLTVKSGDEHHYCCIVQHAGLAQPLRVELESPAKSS
T1 sequence (P61769 21-119 limits assumed, chain 2 of 2): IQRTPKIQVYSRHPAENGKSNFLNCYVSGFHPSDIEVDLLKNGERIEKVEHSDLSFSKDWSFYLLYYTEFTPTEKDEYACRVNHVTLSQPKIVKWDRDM

B1: T026301078 (VHH, name in Kabat numbering)
VHH: EVQLVESGGGVVQPGGSLRLSCAASGFTFSEYDMYWVRQAPGKGLEWVSAISQGGGSTDYADSVKGRFTISRDNSKNTLYLQMNSLRPEDTALYYCAADTLYTDLTWYSYWGQGTLVTVSS
notes: tagless
- koff: 0.0095 s⁻¹

B2: T026301081 (VHH, name in Kabat numbering)
VHH: B1 VHH with G26T, E31S, D33A, Q53S, D104S, W107S
notes: tagless
- koff: 0.0088 s⁻¹

B3: T026301082 (VHH, name in Kabat numbering)
VHH: B1 VHH with G26T, E31S, D33A, Q53S, W107S
notes: tagless
- koff: 0.054 s⁻¹

B4: T026301083 (VHH, name in Kabat numbering)
VHH: B1 VHH with D33A, W107S
notes: tagless
- koff: 0.067 s⁻¹

B5: T026301084 (VHH, name in Kabat numbering)
VHH: B1 VHH with E31S, D33A, Q53S, W107S
notes: tagless
- koff: 0.021 s⁻¹

B6: T026301085 (VHH, name in Kabat numbering)
VHH: B1 VHH with E31S, D33A
notes: tagless
- koff: 0.0066 s⁻¹

B7: T026301086 (VHH, name in Kabat numbering)
VHH: B1 VHH with Q53S
notes: tagless
- koff: 0.013 s⁻¹

B8: T026301088 (VHH, name in Kabat numbering)
VHH: B1 VHH with E31S, Q53S, D104S, W107K
notes: tagless
- koff: 0.0093 s⁻¹

B9: T026301089 (VHH, name in Kabat numbering)
VHH: B1 VHH with E31S, D33A, Q53S, W107K
notes: tagless
- koff: 0.028 s⁻¹

B10: T026301090 (VHH, name in Kabat numbering)
VHH: B1 VHH with G26T, E31S, D33A, D104S, W107K
notes: tagless
- koff: 0.033 s⁻¹

B11: T026301094 (VHH, name in Kabat numbering)
VHH: B1 VHH with G26T, D104S, W107S
notes: tagless
- koff: 0.01 s⁻¹

B12: T026301096 (VHH, name in Kabat numbering)
VHH: B1 VHH with E31S, D33A, W107S
notes: tagless
- koff: 0.034 s⁻¹

B13: T026301097 (VHH, name in Kabat numbering)
VHH: B1 VHH with G26T, D33A, D104S
notes: tagless
- koff: 0.0067 s⁻¹

B14: T026301107 (VHH, name in Kabat numbering)
VHH: B1 VHH with G26T, E31S, D104S, W107S
notes: tagless
- koff: 0.0045 s⁻¹

B15: T026301109 (VHH, name in Kabat numbering)
VHH: B1 VHH with G26T, E31S, D104S
notes: tagless
- koff: 0.0013 s⁻¹

B16: T026301110 (VHH, name in Kabat numbering)
VHH: B1 VHH with D33A
notes: tagless
- koff: 0.014 s⁻¹

B17: T026301112 (VHH, name in Kabat numbering)
VHH: B1 VHH with D104S, W107K
notes: tagless
- koff: 0.0072 s⁻¹

B18: T026301113 (VHH, name in Kabat numbering)
VHH: B1 VHH with D33A, D104S, W107K
notes: tagless
- koff: 0.021 s⁻¹

B19: T026301121 (VHH, name in Kabat numbering)
VHH: B1 VHH with G26T, D104S
notes: tagless
- koff: 0.0018 s⁻¹

B20: T026301123 (VHH, name in Kabat numbering)
VHH: B1 VHH with G26T, E31S, Q53S, D104S
notes: tagless
- koff: 0.0054 s⁻¹

B21: T026301124 (VHH, name in Kabat numbering)
VHH: B1 VHH with G26T, D33A, D104S, W107K
notes: tagless
- koff: 0.059 s⁻¹

B22: T026301125 (VHH, name in Kabat numbering)
VHH: B1 VHH with D33A, Q53S, D104S, W107K
notes: tagless
- koff: 0.0082 s⁻¹

B23: T026301126 (VHH, name in Kabat numbering)
VHH: B1 VHH with G26T, E31S, D33A, Q53S, D104S, W107K
notes: tagless
- koff: 0.01 s⁻¹
